Values belong to the binder of their own block, whether it stands above or below them.
How the values were obtained:
Test in all cases: multimer staining
[1] = biological target: T1, LGSN peptide on HLA-DPA1*01:03 / HLA-DPB1*04:01 (human)
T1 peptide: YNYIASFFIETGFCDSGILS

[2] = biological target: T2, CCND1 peptide on HLA-DPA1*01:03 / HLA-DPB1*04:01 (human)
T2 peptide: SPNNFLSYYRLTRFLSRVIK

[3] = biological target: T3, HSD17B12 peptide on HLA-DPA1*01:03 / HLA-DPB1*04:01 (human)
T3 peptide: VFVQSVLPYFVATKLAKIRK

[4] = biological target: T4, MUC5AC peptide on HLA-DPA1*01:03 / HLA-DPB1*04:01 (human)
T4 peptide: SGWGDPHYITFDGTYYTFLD

[5] = biological target: T5, MAGE-A2 peptide on HLA-DPA1*01:03 / HLA-DPB1*04:01 (human)
T5 peptide: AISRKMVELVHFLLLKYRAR

[6] = biological target: T6, LY6K peptide on HLA-DRA*01:01 / HLA-DRB1*01:01 (human)
T6 peptide: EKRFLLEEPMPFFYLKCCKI

binding result [1]: recognises
B1: 05-LGSN296-315 (TCR)
alpha TRAV9-2*03 TRAJ32*01 CDR3: CALSDLSYGGATNKLIF
beta TRBV27*01 TRBJ1-5*01 CDR3: CASSKGQGLGNQPQHF

binding result [2]: recognises
B2: 03-CCND1219-238 (TCR)
alpha TRAV2*01 TRAJ21*01 CDR3: CAVCTLYNFNKFYF
beta TRBV6-5*01 TRBJ2-1*01 CDR3: CASLTDNNEQFF

binding result [3]: recognises
B3: 05-HSD17B12225-244 (TCR)
alpha TRAV22*01 TRAJ18*01 CDR3: CAVAPYDRGSTLGRLYF
beta TRBV19*01 TRBJ2-5*01 CDR3: CASSTGQGLETQYF

binding result [4]: recognises
B4: 05-MUC5AC4922-4941 (TCR)
Valpha: QTVTQSQPEMSVQEAETVTLSCTYDTSESNYYLFWYKQPPSRQMILVIRQEAYKQQNATENRFSVNFQKAAKSFSLKISDSQLGDTAMYFCAFMKRAETSGSRLTFGEGTQLTVNP
beta TRBV6-2*01 TRBJ2-5*01 CDR3: CASSYWPTRETQYF

binding result [5]: recognises
B5: 06-MAGE-A2108-127 (TCR)
alpha TRAV19*01 TRAJ40*01 CDR3: CALSVGTYKYIF
beta TRBV7-9*01 TRBJ2-5*01 CDR3: CASSPGTGGRETQYF

binding result [6]: recognises
B6: DR1-08-LY6K99-118 (TCR)
alpha TRAV38-2/DV8*01 TRAJ52*01 CDR3: CAYRSFLNAGGTSYGKLTF
beta TRBV20-1*01 TRBJ1-6*01 CDR3: CAASRESKWSSYNSPLHF

binding result [5]: recognises
B7: 03-MAGE-A2108-127 (TCR)
alpha TRAV36/DV7*04 TRAJ40*01 CDR3: CAVEVNSGTYKYIF
beta TRBV2*01 TRBJ1-1*01 CDR3: CASRRDLAAFF

From patent US20220291215A1 (published 2022)
